Target: GST-STG^9D (GST-fused C-terminus of STG with nine serine residues replaced with aspartate)
Assay: pull-down

B1: flag-tagged μ3 subunit of the adaptor protein AP-3 (μ3A) (natural protein)
chain: MIHSLFLINCSGDIFLEKHWKSVVSQSVCDYFFEAQEKAADVENVPPVISTPHHYLISIYRDKLFFVSVIQTEVPPLFVIEFLHRVADTFQDYFGECSEAAIKDNVVIVYELLEEMLDNGFPLATESNILKELIKPPTILRSVVNSITGSSNVGDTLPTGQLSNIPWRRAGVKYTNNEAYFDVVEEIDAIIDKSGSTVFAEIQGVIDACIKLSGMPDLSLSFMNPRLLDDVSFHPCIRFKRWESERVLSFIPPDGNFRLISYRVSSQNLVAIPVYVKHSISFKENSSCGRFDITIGPKQNMGKTIEGITVTVHMPKVVLNMNLTPTQGSYTFDPVTKVLAWDVGKITPQKLPSLKGLVNLQSGAPKPEENPNLNIQFKIQQLAISGLKVNRLDMYGEKYKPFKGVKYVTKAGKFQVRT
- amount of μ3 pulled down (STG^9A = 100%): 21%

From doi:10.1101/2020.11.12.379867
